# Reference: IntAct's records for PubMed 29892012
# B1: Casein kinase II subunit alpha (Homo sapiens), P68400 (parent)
# chain: MSGPVPSRARVYTDVNTHRPREYWDYESHVVEWGNQDDYQLVRKLGRGKYSEVFEAINITNNEKVVVKILKPVKKKKIKREIKILENLRGGPNIITLADIVKDPVSRTPALVFEHVNNTDFKQLYQTLTDYDIRFYMYEILKALDYCHSMGIMHRDVKPHNVMIDHEHRKLRLIDWGLAEFYHPGQEYNVRVASRYFKGPELLVDYQMYDYSLDMWSLGCMLASMIFRKEPFFHGHDNYDQLVRIAKVLGTEDLYDYIDKYNIELDPRFNDILGRHSRKRWERFVHSENQHLVSPEALDFLDKLLRYDHQSRLTAREAMEHPYFYTVVKDQARMGSSSMPGGSTPVSSANMMSGISSVPTPSPLGPLAGSPVIAAANPLGMPVPAAAGAQQ
# partner: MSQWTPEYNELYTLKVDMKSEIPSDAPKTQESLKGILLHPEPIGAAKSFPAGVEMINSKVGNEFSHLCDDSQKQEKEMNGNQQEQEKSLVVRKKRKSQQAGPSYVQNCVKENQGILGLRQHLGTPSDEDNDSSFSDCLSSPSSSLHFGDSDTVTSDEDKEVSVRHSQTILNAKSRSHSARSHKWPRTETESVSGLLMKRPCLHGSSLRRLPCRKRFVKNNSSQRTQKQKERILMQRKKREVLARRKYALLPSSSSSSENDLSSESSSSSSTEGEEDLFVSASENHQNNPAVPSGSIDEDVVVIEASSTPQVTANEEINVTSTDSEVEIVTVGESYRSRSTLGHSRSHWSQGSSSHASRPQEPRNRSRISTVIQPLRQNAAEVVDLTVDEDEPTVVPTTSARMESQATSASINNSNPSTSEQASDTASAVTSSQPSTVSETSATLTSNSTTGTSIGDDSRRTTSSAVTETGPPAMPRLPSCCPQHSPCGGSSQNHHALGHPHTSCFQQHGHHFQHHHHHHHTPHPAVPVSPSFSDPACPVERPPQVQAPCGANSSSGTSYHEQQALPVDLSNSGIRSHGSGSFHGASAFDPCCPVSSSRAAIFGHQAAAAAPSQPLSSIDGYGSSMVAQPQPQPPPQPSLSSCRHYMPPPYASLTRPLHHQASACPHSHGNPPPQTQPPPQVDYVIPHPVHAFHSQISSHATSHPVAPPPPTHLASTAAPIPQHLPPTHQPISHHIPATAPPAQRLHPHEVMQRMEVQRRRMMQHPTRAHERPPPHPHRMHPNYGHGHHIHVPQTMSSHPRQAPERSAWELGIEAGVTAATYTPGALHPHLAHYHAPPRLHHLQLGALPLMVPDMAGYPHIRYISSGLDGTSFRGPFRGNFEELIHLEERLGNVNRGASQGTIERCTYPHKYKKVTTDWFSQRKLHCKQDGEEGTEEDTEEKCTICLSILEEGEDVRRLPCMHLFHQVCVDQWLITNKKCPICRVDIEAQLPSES
# B2: Coiled-coil domain-containing protein 120 (Homo sapiens), Q96HB5-4 (parent)
# chain: MRREPRYQGQVGPDIHTDSERTLSSHQPRPLDSTKMEVKGQLISSPTFNAPAALFGEAAPQVKSERLRGLLDRQRTLQEALSLKLQELRKVCLQEAELTGQLPPECPLEPGERPQLVRRRPPTARAYPPPHPNQAHHSLCPAEELALEALEREVSVQQQIAAAARRLALAPDLSTEQRRRRRQVQADALRRLHELEEQLRDVRARLGLPVLPLPQPLPLSTGSVITTQGVCLGMRLAQLSQEDVVLHSESSSLSESGASHDNEEPHGCFSLAERPSPPKAWDQLRAVSGGSPERRTPWKPPPSDLYGDLKSRRNSVASPTSPTRSLPRSASSFEGRSVPATPVLTRGAGPQLCKPEGLHSRQWSGSQDSQMGFPRADPASDRASLFVARTRRSNSSEALLVDRAAGGGAGSPPAPLAPSASGPPVCKSSEVLYERPQPTPAFSSRTAGPPDPPRAARPSSAAPASRGAPRLPPVCGDFLLDYSLDRGLPRSGGGTGWGELPPAAEVPGPLSRRDGLLTMLPGPPPVYAADSNSPLLRTKDPHTRATRTKPCGLPPEAAEGPEVHPNPLLWMPPPTRIPSAGERSGHKNLALEGLRDWYIRNSGLAAGPQRRPVLPSVGPPHPPFLHARCYEVGQALYGAPSQAPLPHSRSFTAPPVSGRYYADFLYPPELSARLSDLTLEGEQSSSSDTQTPGTLV
# B3: E3 ubiquitin-protein ligase RNF31 (Homo sapiens), Q96EP0 (parent)
# chain: MPGEEEERAFLVAREELASALRRDSGQAFSLEQLRPLLASSLPLAARYLQLDAARLVRCNAHGEPRNYLNTLSTALNILEKYGRNLLSPQRPRYWRGVKFNNPVFRSTVDAVQGGRDVLRLYGYTEEQPDGLSFPEGQEEPDEHQVATVTLEVLLLRTELSLLLQNTHPRQQALEQLLEDKVEDDMLQLSEFDPLLREIAPGPLTTPSVPGSTPGPCFLCGSAPGTLHCPSCKQALCPACDHLFHGHPSRAHHLRQTLPGVLQGTHLSPSLPASAQPRPQSTSLLALGDSSLSSPNPASAHLPWHCAACAMLNEPWAVLCVACDRPRGCKGLGLGTEGPQGTGGLEPDLARGRWACQSCTFENEAAAVLCSICERPRLAQPPSLVVDSRDAGICLQPLQQGDALLASAQSQVWYCIHCTFCNSSPGWVCVMCNRTSSPIPAQHAPRPYASSLEKGPPKPGPPRRLSAPLPSSCGDPEKQRQDKMREEGLQLVSMIREGEAAGACPEEIFSALQYSGTEVPLQWLRSELPYVLEMVAELAGQQDPGLGAFSCQEARRAWLDRHGNLDEAVEECVRTRRRKVQELQSLGFGPEEGSLQALFQHGGDVSRALTELQRQRLEPFRQRLWDSGPEPTPSWDGPDKQSLVRRLLAVYALPSWGRAELALSLLQETPRNYELGDVVEAVRHSQDRAFLRRLLAQECAVCGWALPHNRMQALTSCECTICPDCFRQHFTIALKEKHITDMVCPACGRPDLTDDTQLLSYFSTLDIQLRESLEPDAYALFHKKLTEGVLMRDPKFLWCAQCSFGFIYEREQLEATCPQCHQTFCVRCKRQWEEQHRGRSCEDFQNWKRMNDPEYQAQGLAMYLQENGIDCPKCKFSYALARGGCMHFHCTQCRHQFCSGCYNAFYAKNKCPEPNCRVKKSLHGHHPRDCLFYLRDWTALRLQKLLQDNNVMFNTEPPAGARAVPGGGCRVIEQKEVPNGLRDEACGKETPAGYAGLCQAHYKEYLVSLINAHSLDPATLYEVEELETATERYLHVRPQPLAGEDPPAYQARLLQKLTEEVPLGQSIPRRRK
# partner: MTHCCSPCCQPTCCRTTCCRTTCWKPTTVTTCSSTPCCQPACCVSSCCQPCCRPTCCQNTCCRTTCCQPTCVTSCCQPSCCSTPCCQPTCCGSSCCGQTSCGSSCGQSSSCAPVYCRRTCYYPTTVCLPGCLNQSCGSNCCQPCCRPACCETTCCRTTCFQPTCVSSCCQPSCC
# Variants of: B1
# Settings: with rn111_human RNF111, Q6ZNA4
row,effect of a mutation on the interaction,Variant
1,with no effect,K198R

# Variants of: B2
# Settings: with cyh2_human CYTH2, Q99418
# Chain of cyh2_human CYTH2, Q99418 (Q99418 whole entry): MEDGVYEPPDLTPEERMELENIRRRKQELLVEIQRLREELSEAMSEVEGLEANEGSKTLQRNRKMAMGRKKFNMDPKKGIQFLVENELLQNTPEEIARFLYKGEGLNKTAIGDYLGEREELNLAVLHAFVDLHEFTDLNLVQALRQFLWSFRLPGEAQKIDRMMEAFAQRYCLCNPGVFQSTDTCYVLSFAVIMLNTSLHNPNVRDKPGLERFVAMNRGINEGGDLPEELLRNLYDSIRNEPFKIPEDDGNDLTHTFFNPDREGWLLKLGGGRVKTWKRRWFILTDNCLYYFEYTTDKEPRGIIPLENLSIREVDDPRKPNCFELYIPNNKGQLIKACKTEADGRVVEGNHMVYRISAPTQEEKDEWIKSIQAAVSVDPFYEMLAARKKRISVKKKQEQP
row,effect of a mutation on the interaction,Variant
1,with no effect,R346W

# Variants of: B2
# Settings: with mdfi_human MDFI
row,effect of a mutation on the interaction,Variant
1,with no effect,R346W

# Variants of: B2
# Settings: with k1h1_human KRT31, Q15323
# Chain of k1h1_human KRT31, Q15323 (Q15323 whole entry): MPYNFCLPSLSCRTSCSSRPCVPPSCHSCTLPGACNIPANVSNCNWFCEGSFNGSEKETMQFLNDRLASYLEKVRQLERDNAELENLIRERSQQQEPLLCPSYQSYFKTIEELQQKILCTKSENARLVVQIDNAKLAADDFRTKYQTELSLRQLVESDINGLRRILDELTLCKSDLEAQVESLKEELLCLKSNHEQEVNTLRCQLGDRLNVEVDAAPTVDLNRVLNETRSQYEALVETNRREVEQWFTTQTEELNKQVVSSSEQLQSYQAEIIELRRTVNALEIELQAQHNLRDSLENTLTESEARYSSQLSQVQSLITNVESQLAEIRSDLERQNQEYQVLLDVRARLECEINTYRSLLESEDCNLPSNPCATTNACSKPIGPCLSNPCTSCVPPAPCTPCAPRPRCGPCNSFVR
row,effect of a mutation on the interaction,Variant
1,with no effect,R346W

# Variants of: B2
# Settings: with KRT15, P19012
# Chain of KRT15, P19012 (P19012 whole entry): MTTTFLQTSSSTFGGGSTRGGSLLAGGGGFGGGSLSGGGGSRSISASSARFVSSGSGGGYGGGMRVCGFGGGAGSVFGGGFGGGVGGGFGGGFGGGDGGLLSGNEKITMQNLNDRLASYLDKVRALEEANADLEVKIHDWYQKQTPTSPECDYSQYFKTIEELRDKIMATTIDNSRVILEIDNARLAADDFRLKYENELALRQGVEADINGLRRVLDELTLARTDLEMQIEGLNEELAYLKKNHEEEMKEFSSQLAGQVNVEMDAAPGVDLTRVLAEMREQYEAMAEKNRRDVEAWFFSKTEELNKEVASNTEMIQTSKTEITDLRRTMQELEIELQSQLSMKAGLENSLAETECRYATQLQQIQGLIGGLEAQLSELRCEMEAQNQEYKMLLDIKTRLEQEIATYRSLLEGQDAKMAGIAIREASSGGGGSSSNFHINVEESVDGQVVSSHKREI
row,effect of a mutation on the interaction,Variant
1,with no effect,R346W

# Variants of: B3
# Settings: with kra92_human KRTAP9-2, Q9BYQ4
row,effect of a mutation on the interaction,Variant
1,with no effect,R646W
